Values quoted from earlier work, collected in article PMC3310390.
Like-named read-outs stand apart in the source and are kept apart here. Blank lines part the entries; values can stand above or below the substance they belong to.

Columns and labels:
[1] = biological target: Sir3 (Saccharomyces cerevisiae) (UniProt P06701)
[2] = biological target: Sir3 (Saccharomyces cerevisiae) (UniProt P06701); remark: listed apart in the source
[3] = biological target: Sir3 (Saccharomyces cerevisiae) (UniProt P06701); remark: listed apart in the source

Kd [1]: 60 nM
Substance: Sir2 (from UniProt P06700)

Kd [2]: 0.03 nM
Substance: Sir2/Sir4 complex (from UniProt P06700)

Kd [3]: 2 nM
Substance: Sir3 (from UniProt P06701)
